We go through 25 molecules from US20180362632A1 (published 2018).

Positions count from the first letter of the chain named. “And” between values parts separate entries of the source, which are not always exact repeats. Equal entries are not always repeated.

B1: 50C5 chimera (antibody, V domains shown)
VH: QVQLQQSAAELVRPGASVKMSCKASGYIFTPYSIHWIKQRPGQGLEWIGYINPSTGYIEYNQHFKDRTTLTADKSSSTAYMQLRSLTSEDSAVYYCARGGDYEGYFDYWGQGTTLTVSS
VL: DIQMTQSPDSLSASVGETVTITCRLNENIYSFLAWYQQRQGKSPQLLVYNAETLAEDVPSRFSGSGSGTQFSLKISSLQTDDFGTYYCQQHYGTPYTFGGGTNLEIE
B2: Hu50C5-13 (antibody, V domains shown)
VH: EVQLVQSGAEVKKPGSSVKVSCKASGYIFSPYSIHWVRQAPGQGLEWIGYINPSTGYIEYNQHFKDRVTITADKSTSTAYMELRSLRSEDTAVYYCARGGDYEGYFDYWGQGTTVTVSS
VL: DIQMTQSPSSLSASVGDRVTITCRLNENIYSFLAWYQQKPGKAPKLLVYNAETLAEDVPSRFSGSGSGTDFTLTISSLQPEDFATYYCQQHYGTPYTFGGGTKVEIK
B3: Hu50C5-7 (antibody, V domains shown)
VH: B2 VH with I48M
VL: B2 VL with D57G
B4: Hu50C5-2 (antibody, V domains shown)
VH: B2 VH with Y27G, I28T, I48M
VL: B2 VL with D57G
B5: Hu50C5-8 (antibody, V domains shown)
VH: B2 VH with I48M
VL: B2 VL
B6: Hu50C5-6 (antibody, V domains shown)
VH: B2 VH with I48M
VL: B2 VL with V48I, D57G
B7: Hu50C5-1 (antibody, V domains shown)
VH: B2 VH with Y27G, I28T, I48M
VL: B2 VL with V48I, D57G
B8: Hu50C5-3 (antibody, V domains shown)
VH: B2 VH with Y27G, I28T, I48M
VL: B2 VL
B9: Hu50C5-4 (antibody, V domains shown)
VH: B2 VH with Y27G, I28T, I48M
VL: B2 VL with D70Q
B10: Hu50C5-10 (antibody, V domains shown)
VH: B2 VH with I48M
VL: B2 VL with A43S, D70Q
B11: Hu50C5-12 (antibody, V domains shown)
VH: B2 VH
VL: B2 VL with D57G
B12: Hu50C5-9 (antibody, V domains shown)
VH: B2 VH with I48M
VL: B2 VL with D70Q
B13: Hu50C5-5 (antibody, V domains shown)
VH: B2 VH with Y27G, I28T, I48M
VL: B2 VL with A43S, D70Q
B14: Hu50C5-11 (antibody, V domains shown)
VH: B2 VH
VL: B2 VL with V48I, D57G
B15: Hu50C5-14 (antibody, V domains shown)
VH: B2 VH
VL: B2 VL with D70Q
B16: Hu50C5-23 (antibody, V domains shown)
VH: B2 VH with S30T, V68T, I70L
VL: B2 VL
B17: Hu50C5-16 (antibody, V domains shown)
VH: B2 VH with V68T, I70L
VL: B2 VL with V48I, D57G
B18: Hu50C5-18 (antibody, V domains shown)
VH: B2 VH with V68T, I70L
VL: B2 VL
B19: Hu50C5-20 (antibody, V domains shown)
VH: B2 VH with V68T, I70L
VL: B2 VL with A43S, D70Q
B20: Hu50C5-19 (antibody, V domains shown)
VH: B2 VH with V68T, I70L
VL: B2 VL with D70Q
B21: Hu50C5-21 (antibody, V domains shown)
VH: B2 VH with S30T, V68T, I70L
VL: B2 VL with V48I, D57G
B22: Hu50C5-22 (antibody, V domains shown)
VH: B2 VH with S30T, V68T, I70L
VL: B2 VL with D57G
B23: Hu50C5-17 (antibody, V domains shown)
VH: B2 VH with V68T, I70L
VL: B2 VL with D57G
B24: Hu50C5-15 (antibody, V domains shown)
VH: B2 VH
VL: B2 VL with A43S, D70Q
B25: Hu50C5-24 (antibody, V domains shown)
VH: B2 VH with S30T, V68T, I70L
VL: B2 VL with D70Q

T1 sequence (P04141 18-144): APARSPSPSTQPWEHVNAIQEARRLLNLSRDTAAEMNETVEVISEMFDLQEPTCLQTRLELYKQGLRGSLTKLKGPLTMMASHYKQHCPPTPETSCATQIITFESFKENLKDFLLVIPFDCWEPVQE

The first experiment addresses T1, recombinant human GM-CSF protein (human, UniProt P04141 18-144). The experiment is described as follows: ELISA.
Usually EC50 stands for the midpoint of the concentration-response curve. Consider B1, for which the EC50 was 0.464 nM and 0.483 nM. Turning to B2, the half-maximal effective concentration (EC50) amounted to 3.52 nM.

As for B3, the EC50 amounted to 0.844 nM. Same read-out and setting: then B4, with 2.19 nM; and B5, with 0.438 nM. Same read-out and setting: then B6, with 0.345 nM. Still for that read-out and setting: then B7, with 2.75 nM. As to B8, the EC50 was 1.85 nM.

Regarding B9, the EC50 is 1.18 nM. On the same count and under the same terms, next, B10: 1.03 nM; B11: 3.24 nM; B12: 0.568 nM. The same measure, in the same setting: next, B13: 0.534 nM. The same measure, in the same setting: next, B14: 0.462 nM; B15: 1.94 nM.

The next experiment addresses T1, recombinant human GM-CSF protein. The experiment can be described thus: ELISA. The source holds these as a separate data set. In general terms: An ELISA detects its analyte on a solid surface through an enzyme-linked reagent.
Turning to B1, the EC50 was 0.547 nM.

In the case of B16, the EC50 was found to be 0.356 nM. On to B17, for which the EC50 is 0.46 nM. Same read-out and setting: next, B18: 0.612 nM; B19: 0.305 nM; B20: 0.272 nM.

In the case of B21, the EC50 came to 0.339 nM. In the case of B22, the EC50 stood at 0.889 nM. Same read-out and setting: then B23, with 0.215 nM; and B24, with 2.72 nM. The same measure, in the same setting: then B25, with 0.305 nM.
